From the supplement of paper PMC11316812
± gives the standard deviation of the averaged measurements.

How the values were obtained:
MCF7 = test: percentage of EdU-negative (G0-arrested) nuclei per well, 72 h; higher = more G0 arrest; conditions: reference: sequence is the full UniProt precursor, the tested protein was the secreted form or ectodomain
hTERT-HMEC = test: as above; conditions: reference: sequence is the full UniProt precursor, the tested protein was the secreted form or ectodomain
[1] = protein concentration 0.0175 µM
[2] = protein concentration 0.0128571 µM
[3] = protein concentration 0.128571 µM
[4] = protein concentration 0.0214286 µM
[5] = protein concentration 0.0225 µM
[6] = protein concentration 0.214286 µM
[7] = protein concentration 0.0257143 µM
[8] = protein concentration 0.257143 µM
[9] = protein concentration 0.03125 µM
[10] = protein concentration 0.3125 µM
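Further: secreted proteins added to cultured cells, EdU pulse at the end, nuclei found by Hoechst imaging, EdU status from nuclear versus surrounding ring intensity ratio, PBS as neutral control.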

Sequence: MGPPSSSGFYVSRAVALLLAGLVAALLLALAVLAALYGHCERVPPSELPGLRDLEAESSPPLRQKPTPTPKPSSARELAVTTTPSNWRPPGPWDQLRLPPWLVPLHYDLELWPQLRPDELPAGSLPFTGRVNITVRCTVATSRLLLHSLFQDCERAEVRGPLSPGTGNATVGRVPVDDVWFALDTEYMVLELSEPLKPGSSYELQLSFSGLVKEDLREGLFLNVYTDQGERRALLASQLEPTFARYVFPCFDEPALKATFNITMIHHPSYVALSNMPKLGQSEKEDVNGSKWTVTTFSTTPHMPTYLVAFVICDYDHVNRTERGKEIRIWARKDAIANGSADFALNITGPIFSFLEDLFNISYSLPKTDIIALPSFDNHAMENWGLMIFDESGLLLEPKDQLTEKKTLISYVVSHEIGHQWFGNLVTMNWWNNIWLNEGFASYFEFEVINYFNPKLPRNEIFFSNILHNILREDHALVTRAVAMKVENFKTSEIQELFDIFTYSKGASMARMLSCFLNEHLFVSALKSYLKTFSYSNAEQDDLWRHFQMAIDDQSTVILPATIKNIMDSWTHQSGFPVITLNVSTGVMKQEPFYLENIKNRTLLTSNDTWIVPILWIKNGTTQPLVWLDQSSKVFPEMQVSDSDHDWVILNLNMTGYYRVNYDKLGWKKLNQQLEKDPKAIPVIHRLQLIDDAFSLSKNNYIEIETALELTKYLAEEDEIIVWHTVLVNLVTRDLVSEVNIYDIYSLLKRYLLKRLNLIWNIYSTIIRENVLALQDDYLALISLEKLFVTACWLGLEDCLQLSKELFAKWVDHPENEIPYPIKDVVLCYGIALGSDKEWDILLNTYTNTTNKEEKIQLAYAMSCSKDPWILNRYMEYAISTSPFTSNETNIIEVVASSEVGRYVAKDFLVNNWQAVSKRYGTQSLINLIYTIGRTVTTDLQIVELQQFFSNMLEEHQRIRVHANLQTIKNENLKNKKLSARIAAWLRRNT [Q6Q4G3]
- percentage of EdU-negative (MCF7; [1]): 22.3 ± 0.34%
- percentage of EdU-negative (MCF7; protein concentration 0.175 µM): 27.4 ± 4.3%
- percentage of EdU-negative (hTERT-HMEC; [1]): 5.44 ± 0.3%
- percentage of EdU-negative (hTERT-HMEC; protein concentration 0.175 µM): 16.6 ± 0.49%

Sequence: MGPRARPALLLLMLLQTAVLQGRLLRSHSLHYLFMGASEQDLGLSLFEALGYVDDQLFVFYDHESRRVEPRTPWVSSRISSQMWLQLSQSLKGWDHMFTVDFWTIMENHNHSKESHTLQVILGCEMQEDNSTEGYWKYGYDGQDHLEFCPDTLDWRAAEPRAWPTKLEWERHKIRARQNRAYLERDCPAQLQQLLELGRGVLDQQVPPLVKVTHHVTSSVTTLRCRALNYYPQNITMKWLKDKQPMDAKEFEPKDVLPNGDGTYQGWITLAVPPGEEQRYTCQVEHPGLDQPLIVIWEPSPSGTLVIGVISGIAVFVVILFIGILFIILRKRQGSRGAMGHYVLAERE
- percentage of EdU-negative (MCF7; [2]): 25.8 ± 0.42%
- percentage of EdU-negative (MCF7; [3]): 29 ± 1.8%
- percentage of EdU-negative (hTERT-HMEC; [2]): 5.75 ± 0.3%
- percentage of EdU-negative (hTERT-HMEC; [3]): 7.25 ± 1.1%

Sequence: MGPWSRSLSALLLLLQVSSWLCQEPEPCHPGFDAESYTFTVPRRHLERGRVLGRVNFEDCTGRQRTAYFSLDTRFKVGTDGVITVKRPLRFHNPQIHFLVYAWDSTYRKFSTKVTLNTVGHHHRPPPHQASVSGIQAELLTFPNSSPGLRRQKRDWVIPPISCPENEKGPFPKNLVQIKSNKDKEGKVFYSITGQGADTPPVGVFIIERETGWLKVTEPLDRERIATYTLFSHAVSSNGNAVEDPMEILITVTDQNDNKPEFTQEVFKGSVMEGALPGTSVMEVTATDADDDVNTYNAAIAYTILSQDPELPDKNMFTINRNTGVISVVTTGLDRESFPTYTLVVQAADLQGEGLSTTATAVITVTDTNDNPPIFNPTTYKGQVPENEANVVITTLKVTDADAPNTPAWEAVYTILNDDGGQFVVTTNPVNNDGILKTAKGLDFEAKQQYILHVAVTNVVPFEVSLTTSTATVTVDVLDVNEAPIFVPPEKRVEVSEDFGVGQEITSYTAQEPDTFMEQKITYRIWRDTANWLEINPDTGAISTRAELDREDFEHVKNSTYTALIIATDNGSPVATGTGTLLLILSDVNDNAPIPEPRTIFFCERNPKPQVINIIDADLPPNTSPFTAELTHGASANWTIQYNDPTQESIILKPKMALEVGDYKINLKLMDNQNKDQVTTLEVSVCDCEGAAGVCRKAQPVEAGLQIPAILGILGGILALLILILLLLLFLRRRAVVKEPLLPPEDDTRDNVYYYDEEGGGEEDQDFDLSQLHRGLDARPEVTRNDVAPTLMSVPRYLPRPANPDEIGNFIDENLKAADTDPTAPPYDSLLVFDYEGSGSEAASLSSLNSSESDKDQDYDYLNEWGNRFKKLADMYGGGEDD
- percentage of EdU-negative (MCF7; [4]): 23.8 ± 3.6%
- percentage of EdU-negative (MCF7; [5]): 26.2 ± 3.6%
- percentage of EdU-negative (MCF7; [6]): 26.8 ± 1.9%
- percentage of EdU-negative (MCF7; protein concentration 0.225 µM): 28.91 ± 0.16%
- percentage of EdU-negative (hTERT-HMEC; [4]): 5.09 ± 0.58%
- percentage of EdU-negative (hTERT-HMEC; [5]): 4.93 ± 0.37%
- percentage of EdU-negative (hTERT-HMEC; [6]): 6.74 ± 0.63%
- percentage of EdU-negative (hTERT-HMEC; protein concentration 0.225 µM): 23.4 ± 1.1%

Sequence: MGRDLRPGSRVLLLLLLLLLVYLTQPGNGNEGSVTGSCYCGKRISSDSPPSVQFMNRLRKHLRAYHRCLYYTRFQLLSWSVCGGNKDPWVQELMSCLDLKECGHAYSGIVAHQKHLLPTSPPISQASEGASSDIHTPAQMLLSTLQSTQRPTLPVGSLSSDKELTRPNETTIHTAGHSLAAGPEAGENQKQPEKNAGPTARTSATVPVLCLLAIIFILTAALSYVLCKRRRGQSPQSSPDLPVHYIPVAPDSNT [Q9H2A7]
- percentage of EdU-negative (MCF7; [7]): 25.9 ± 0.7%
- percentage of EdU-negative (MCF7; [8]): 25.9 ± 2.8%
- percentage of EdU-negative (hTERT-HMEC; [7]): 4.5 ± 0.52%
- percentage of EdU-negative (hTERT-HMEC; [8]): 4.18 ± 0.16%

Sequence: MGRGWGFLFGLLGAVWLLSSGHGEEQPPETAAQRCFCQVSGYLDDCTCDVETIDRFNNYRLFPRLQKLLESDYFRYYKVNLKRPCPFWNDISQCGRRDCAVKPCQSDEVPDGIKSASYKYSEEANNLIEECEQAERLGAVDESLSEETQKAVLQWTKHDDSSDNFCEADDIQSPEAEYVDLLLNPERYTGYKGPDAWKIWNVIYEENCFKPQTIKRPLNPLASGQGTSEENTFYSWLEGLCVEKRAFYRLISGLHASINVHLSARYLLQETWLEKKWGHNITEFQQRFDGILTEGEGPRRLKNLYFLYLIELRALSKVLPFFERPDFQLFTGNKIQDEENKMLLLEILHEIKSFPLHFDENSFFAGDKKEAHKLKEDFRLHFRNISRIMDCVGCFKCRLWGKLQTQGLGTALKILFSEKLIANMPESGPSYEFHLTRQEIVSLFNAFGRISTSVKELENFRNLLQNIH [Q96HE7]
- percentage of EdU-negative (MCF7; [9]): 26.32 ± 0.034%
- percentage of EdU-negative (MCF7; [10]): 25.7 ± 0.52%
- percentage of EdU-negative (hTERT-HMEC; [9]): 6.24 ± 0.39%
- percentage of EdU-negative (hTERT-HMEC; [10]): 6.47 ± 0.033%

Sequence: MGRPRPRAAKTWMFLLLLGGAWAGHSRAQEDKVLGGHECQPHSQPWQAALFQGQQLLCGGVLVGGNWVLTAAHCKKPKYTVRLGDHSLQNKDGPEQEIPVVQSIPHPCYNSSDVEDHNHDLMLLQLRDQASLGSKVKPISLADHCTQPGQKCTVSGWGTVTSPRENFPDTLNCAEVKIFPQKKCEDAYPGQITDGMVCAGSSKGADTCQGDSGGPLVCDGALQGITSWGSDPCGRSDKPGVYTNICRYLDWIKKIIGSKG
- percentage of EdU-negative (MCF7; [5]): 26.4 ± 2.5%
- percentage of EdU-negative (MCF7; protein concentration 0.225 µM): 24.6 ± 0.69%
- percentage of EdU-negative (hTERT-HMEC; [5]): 4.99 ± 0.28%
- percentage of EdU-negative (hTERT-HMEC; protein concentration 0.225 µM): 5.28 ± 0.5%
